Source: publication PMC7661550, “A ‘Split-Gene’ Transketolase From the Hyper-Thermophilic Bacterium Carboxydothermus hydrogenoformans: Structure and Biochemical Characterization” (Frontiers in Microbiology, 2020)

B1: ChTK-F (Carboxydothermus hydrogenoformans Z-2901) (protein)
chain 1: MQDEILNLKLIANQLRQHVVKMVGEANSGHPGGSLSAADILAVLFFKEMRIDPANPKWQDRDRFVLSKGHASPVLYAALAERGFFPKEWLSQFRKINSPLQGHPDMKKVPGVEMSTGSLGQGFSTAVGMALGLKLDRSPARVYVLLGDGEIQEGIVWEAAMAAAHYKLNNLTAILDYNGLQIDGPVQEVMNPEPVADKWRSFGFKVITVDGHNIPEIINAIDAARLHLEGPTIIIAKTVKGKGVSFMENRVEWHGSAPKPEQVAEALSELQVGREKLWEE
chain 2: MGGIATREAYGKALVELGQENPKIVVLDADLSKSTKTSDFAKAFPERFFNMGIAEQNLMGVAAGLSTVGKIPFASTFAVFAAGRAFEIIRNSICYPKLNVKIAATHAGLTVGEDGASHQAIEDLALMRVLPNMQVFVPADAAQTRAIVKKAAEIEGPVYIRLGRSGVPEVFSPDIRFEPGRGTVLKEGKDVTIVALGIMTAKALEAAKMLEAEGIAARVVDMASLKPIDRELLVESARLTGAVVTAEEHSVIGGLGSAVAEVLSEEYPIPVVKVGVNDVFGESGTPQALLEKYGLTARDVVAAVQKALTLKR
notes: two split-gene subunits (alpha ChTK-N, PP domain)
B2: ChTK-N, N-terminal 'split-gene' transketolase polypeptide (PP domain) of Carboxydothermus hydrogenoformans (natural protein, Carboxydothermus hydrogenoformans Z-2901)
chain: MQDEILNLKLIANQLRQHVVKMVGEANSGHPGGSLSAADILAVLFFKEMRIDPANPKWQDRDRFVLSKGHASPVLYAALAERGFFPKEWLSQFRKINSPLQGHPDMKKVPGVEMSTGSLGQGFSTAVGMALGLKLDRSPARVYVLLGDGEIQEGIVWEAAMAAAHYKLNNLTAILDYNGLQIDGPVQEVMNPEPVADKWRSFGFKVITVDGHNIPEIINAIDAARLHLEGPTIIIAKTVKGKGVSFMENRVEWHGSAPKPEQVAEALSELQVGREKLWEE
notes: forms the PP domain; calculated mass of the His-tagged protein 31.0 kDa; chain A of PDB 6YAK; The gene was cloned into the LIC site of pLATE51; By gel filtration the free protein elutes as a dimer; two copies stand in the α2β2 heterotetramer ChTK-F; also called α subunit of ChTK-F (α2β2); source: E. coli BL21 DE3*, purified (heat treatment at 50°C, HisTrap/Ni-NTA, Superdex 200 gel filtration)
B3: ChTK-C, C-terminal 'split-gene' transketolase polypeptide (Pyr and C-terminal domains) of Carboxydothermus hydrogenoformans (natural protein, Carboxydothermus hydrogenoformans Z-2901)
chain: MGGIATREAYGKALVELGQENPKIVVLDADLSKSTKTSDFAKAFPERFFNMGIAEQNLMGVAAGLSTVGKIPFASTFAVFAAGRAFEIIRNSICYPKLNVKIAATHAGLTVGEDGASHQAIEDLALMRVLPNMQVFVPADAAQTRAIVKKAAEIEGPVYIRLGRSGVPEVFSPDIRFEPGRGTVLKEGKDVTIVALGIMTAKALEAAKMLEAEGIAARVVDMASLKPIDRELLVESARLTGAVVTAEEHSVIGGLGSAVAEVLSEEYPIPVVKVGVNDVFGESGTPQALLEKYGLTARDVVAAVQKALTLKR
notes: Pyr domain residues 1-162 and C-terminal domain residues 164-312; calculated mass of the His-tagged protein 33.2 kDa; chain D of PDB 6YAK, all chains of PDB 6YAJ; The gene was cloned into the LIC site of pLATE51; By gel filtration the free protein elutes as a tetramer; two copies stand in the α2β2 heterotetramer ChTK-F; also called β subunit of ChTK-F (α2β2); ChTK β4; source: E. coli BL21 DE3*, …

Columns and labels:
purified protein = substrate: O=CCO; experiment: purified protein; assay type: biochemical, Carboxydothermus hydrogenoformans; details: hydroxypyruvate 100 mM as ketol donor, TPP, CaCl2, 10 mM HEPES pH 7.2, 0.1 M NaCl, room temperature
[1] = molecular target: the molecule itself; experiment: SEC; each protein alone on a calibrated Superdex 200 HiLoad 16/60 column, 10 mM HEPES, 0.1 M NaCl, pH 7.2; apparent molecular mass
[2] = molecular target: the molecule itself; experiment: crystal structure; reconstituted ChTK-F α2β2 with TPP and Ca2+, 2.1 M DL-malic acid pH 7.0, space group I222, 1.4 Å (PDB 6YAK); also a PEG 1500 crystal form at 2.1 Å

| Protein | Km (purified protein) | stoichiometry N [1] | stoichiometry N [2] |
| --- | --- | --- | --- |
| B1 | 41 ± 4 mM |  |  |
| B2 |  | 2 |  |
| B3 |  | 4 | 2 |
